Target: dual specificity anti-activin A/B antibody (human IgG1 format) (human)
Assay: BLI

B1: mature human activin A (ligand)
chain: GLECDGKVNICCKKQFFVSFKDIGWNDWIIAPSGYHANYCEGECPSHIAGTSGSSLSFHSTVINHYRMRGHSPFANLKSCCVPTKLRPMSMLYYDDGQNIIKKDIQNMIVEECGCS
  Kd: 0.13 nM

Source: paper doi:10.1101/2025.06.13.659133
